Measurements from US20200256880A1 (BROAD INSTITUTE, published 2020).

Columns and labels:
Assay in all cases: western blot of recombinant protein
[1] = target: T1, recombinant human CNAα wild type (unphosphorylated) (human, UniProt Q08209 1-521, limits assumed)
T1 construct: Co-expressed with the CNB1 subunit in E. coli and co-purified; run on denaturing gels for western blot; also called wild-type CNAα; WT CNAα
Description: (§1) Levels of total CNAα were used as a loading control and were assessed after stripping of the membranes and incubation with anti-CNAα rabbit by chemiluminescence (bottom panel).

[2] = target: T2, recombinant human CNAα S469E phosphomimetic mutant (human, UniProt Q08209 1-521, limits assumed)
T2 construct: Co-expressed with CNB1 in E. coli and co-purified; also called S469E CNAα; phosphomimic mutant S469E
Description: as §1

[3] = target: recombinant CNAα double mutant S462E/S469E (human, UniProt Q08209 1-521, limits assumed)
Description: as §1

B1: monoclonal mouse anti-pS469 CNAα antibody (antibody, V domains shown)
VH: EVQLQQSGAELVRPGASVKLSCTASDFNIKDTYIHWLKQRPEQGLEWIGRIDPANSNPKYDPNFQGKATITTDTSSNTAYLQLSSLTSDDTAVYYCTRRDYYGSGSWFAYWGQGTLVTVSS
VL: DIVMTQAAPSVPVTPGESVSISCRSSKSLLHSNGNTYLYWFLQRPGQSPQLLIYRMSNLASGVPDRFSGSGSGTAFTLRINRVEAEDVGVYYCMQHLEYPLTFGAGTKLELK
notes: 7 and 9 are used; Mouse monoclonal; also called monoclonal mouse anti-S469 phosphospecific antibody; monoclonal murine anti-S469 CNAα phosphospecific antibody
Q: Does B1 bind [1]?
A: no binding

Q: Does B1 bind [2]?
A: binds

Q: Does B1 bind [3]?
A: binds
